The data set deals with the molecule itself. Description: negative-stain electron microscopy of purified complexes.

B1: Cdc11 (natural protein, S. cerevisiae, UniProt P32458 1-415, looked up)
chain: MSGIIDASSALRKRKHLKRGITFTVMIVGQSGSGRSTFINTLCGQQVVDTSTTILLPTDTSTEIDLQLREETVELEDDEGVKIQLNIIDTPGFGDSLDNSPSFEIISDYIRHQYDEILLEESRVRRNPRFKDGRVHCCLYLINPTGHGLKEIDVEFIRQLGSLVNIIPVISKSDSLTRDELKLNKKLIMEDIDRWNLPIYNFPFDEDEISDEDYETNMYLRTLLPFAIIGSNEVYEMGGDVGTIRGRKYPWGILDVEDSSISDFVILRNALLISHLHDLKNYTHEILYERYRTEALSGESVAAESIRPNLTKLNGSSSSSTTTRRNTNPFKQSNNINNDVLNPASDMHGQSTGENNETYMTREEQIRLEEERLKAFEERVQQELLLKRQELLQREKELREIEARLEKEAKIKQEE
For the protein B1, the binding result was “binds”.

The values are drawn from article PMC3079881 (Developmental cell, 2011).
